Laboratory results published in the supplement of paper PMC9233669.
This sample holds only a part of the variants without activity.

Columns and labels:
biotinyl-Phe-oxazolone = assay: self-aminoacylation, catalytic enhancement (BFO) (fold over background); higher = more active; k-Seq, kA / k0A0; sequences stand for … in GGGAAUGGAUCCACAUCUACGAAUUC…UUCACUGCAGACUUGACGAAGCUG
In short: (§1)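 Mutagenized RNA pools with a 21-nt variable region (0.43 μM) reacted with each biotinyl-aminoacyl-oxazolone at 2–1250 μM. Reactions ran in 50 μL HEPES/NaCl/KCl/MgCl2/CaCl2 buffer with 5% acetonitrile, pH 6.9–7.0, for 90 minutes at room temperature. Streptavidin-captured RNA was quantified by triplicate qPCR and Illumina sequencing, and per-sequence fraction reacted was fit to a pseudo-first-order model with 1000 bootstraps. Catalytic enhancement is median kA divided by the uncatalyzed rate, the low-activity peak of a bimodal Gaussian fit.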

biotinyl-Trp-oxazolone = assay: self-aminoacylation, catalytic enhancement (BWO) (fold over background); higher = more active; k-Seq, kA / k0A0; sequences stand for … in GGGAAUGGAUCCACAUCUACGAAUUC…UUCACUGCAGACUUGACGAAGCUG
In short: as §1

biotinyl-Ile-oxazolone = assay: self-aminoacylation, catalytic enhancement (BIO) (fold over background); higher = more active; k-Seq, kA / k0A0; sequences stand for … in GGGAAUGGAUCCACAUCUACGAAUUC…UUCACUGCAGACUUGACGAAGCUG
In short: as §1

biotinyl-Leu-oxazolone = assay: self-aminoacylation, catalytic enhancement (BLO) (fold over background); higher = more active; k-Seq, kA / k0A0; sequences stand for … in GGGAAUGGAUCCACAUCUACGAAUUC…UUCACUGCAGACUUGACGAAGCUG
In short: as §1

biotinyl-Met-oxazolone = assay: self-aminoacylation, catalytic enhancement (BMO) (fold over background); higher = more active; k-Seq, kA / k0A0; sequences stand for … in GGGAAUGGAUCCACAUCUACGAAUUC…UUCACUGCAGACUUGACGAAGCUG
In short: as §1

biotinyl-Val-oxazolone = assay: self-aminoacylation, catalytic enhancement (BVO) (fold over background); higher = more active; k-Seq, kA / k0A0; sequences stand for … in GGGAAUGGAUCCACAUCUACGAAUUC…UUCACUGCAGACUUGACGAAGCUG
In short: as §1

| Sequence | self-aminoacylation (biotinyl-Phe-oxazolone) | self-aminoacylation (biotinyl-Trp-oxazolone) | self-aminoacylation (biotinyl-Ile-oxazolone) | self-aminoacylation (biotinyl-Leu-oxazolone) | self-aminoacylation (biotinyl-Met-oxazolone) | self-aminoacylation (biotinyl-Val-oxazolone) |
| --- | --- | --- | --- | --- | --- | --- |
| AAGUUUGCUAAUAGCCGCACG [Fam3.1 aminoacylation ribozyme variant] | 1.41 | 2.52 | 1.31 | 1.32 | 1.08 | 1.21 |
| AAGUUUGCUAAUAGGCGCAAU [Fam3.1 aminoacylation ribozyme variant] | 1.52 | 0.968 | 1.6 | 1.46 | 1.71 | 1.58 |
| AAGUUUGCUAAUAGGCGCACG [Fam3.1 aminoacylation ribozyme variant] | 2.42 | 0.485 | 0.981 | 0.865 | 0.568 | 0.833 |
| AAGUUUGCUAAUAGGCGGAAG [Fam3.1 aminoacylation ribozyme variant] | 0.916 | 0.922 | 0.806 | 0.675 | 0.721 | 0.89 |
| AAGUUUGCUAAUAGUACCAAG [Fam3.1 aminoacylation ribozyme variant] | 1.41 | 0.838 | 1.14 | 0.791 | 1.22 | 1.15 |
| AAGUUUGCUAAUAGUAGCCAG [Fam3.1 aminoacylation ribozyme variant] | 1.04 | 2.24 | 0.868 | 0.78 | 0.77 | 0.769 |
| AAGUUUGCUAAUAGUAGCGAG [Fam3.1 aminoacylation ribozyme variant] | 1.65 | 1.14 | 1.21 | 0.962 | 0.995 | 1 |
| AAGUUUGCUAAUAGUCACAAA [Fam3.1 aminoacylation ribozyme variant] | 1.34 | 1.15 | 1.21 | 1.22 | 1.32 | 1.09 |
| AAGUUUGCUAAUAGUCACAAC [Fam3.1 aminoacylation ribozyme variant] | 1.47 | 0.593 | 0.673 | 0.637 | 0.6 | 0.621 |
| AAGUUUGCUAAUAGUCCAAAG [Fam3.1 aminoacylation ribozyme variant] | 3.72 | 1.75 | 1.21 | 0.966 | 1.34 | 1.18 |
| AAGUUUGCUAAUAGUCCGAAG [Fam3.1 aminoacylation ribozyme variant] | 4.75 | 1.89 | 1.1 | 0.863 | 1.02 | 1.02 |
| AAGUUUGCUAAUAGUCGCAAG [Fam3.1 aminoacylation ribozyme variant] | 32 | 7.99 | 1.33 | 1.01 | 1.47 | 1.15 |
| AAGUUUGCUAAUAGUCGCACC [Fam3.1 aminoacylation ribozyme variant] | 1.29 | 0.849 | 0.81 | 0.718 | 0.569 | 0.756 |
| AAGUUUGCUAAUAGUCGCAUU [Fam3.1 aminoacylation ribozyme variant] | 1.63 | 1.29 | 1.37 | 1.27 | 1.25 | 1.22 |
| AAGUUUGCUAAUAGUCGCGCG [Fam3.1 aminoacylation ribozyme variant] | 20.9 | 5.74 | 3.47 | 4.77 | 3.95 | 2.94 |
| AAGUUUGCUAAUAGUCGCUAG [Fam3.1 aminoacylation ribozyme variant] | 1.68 | 1.05 | 0.852 | 0.809 | 0.813 | 0.852 |
| AAGUUUGCUAAUAGUCGGUAG [Fam3.1 aminoacylation ribozyme variant] | 1.66 | 0.993 | 0.974 | 1.03 | 0.878 | 0.771 |
| AAGUUUGCUAAUAGUCUCCAG [Fam3.1 aminoacylation ribozyme variant] | 1.59 | 1.02 | 1.1 | 0.909 | 0.855 | 0.947 |
| AAGUUUGCUAAUAGUGGCAAU [Fam3.1 aminoacylation ribozyme variant] | 1.43 | 0.811 | 1.08 | 0.961 | 1.16 | 1.16 |
| AAGUUUGCUAAUAGUGGCGAG [Fam3.1 aminoacylation ribozyme variant] | 1.2 | 0.531 | 0.939 | 1.09 | 0.875 | 0.88 |
| AAGUUUGCUAAUAGUGGCUAG [Fam3.1 aminoacylation ribozyme variant] | 1.52 | 0.748 | 0.811 | 0.65 | 0.777 | 0.862 |
